Common to all, as to test: purified protein
Substrate in data set [1]: O=C(O)[C@@H]1C[C@@H](O)CN1
Type of data set: biochemical, Roseibium aggregatum. The settings on record: 4HypE reaction (start from t4Hyp as in Figure 1), 50 mM Na-phosphate pH 8.0, 1 mM DTT, 25°C.

Substrate in data set [2]: O=C(O)C1=NCCC1
Conditions: 0.16 mM NADPH, 50 mM Tris-HCl pH 7.6, 25°C.

Substrate in data set [3]: O=C(O)[C@H]1NCC[C@@H]1O
Type of data set: biochemical, Burkholderia ambifaria. The settings on record: t3HypD (dehydration) reaction, 50 mM Na-phosphate pH 8.0, 1 mM DTT, 25°C.

Substrate in data set [4]: O=C(O)[C@@H]1C[C@@H](O)CN1
The data set is classed as biochemical, Agrobacterium fabrum. Conditions: 4HypE reaction (start from t4Hyp as in Figure 1), 50 mM Na-phosphate pH 8.0, 1 mM DTT, 25°C.

Substrate in data set [5]: O=C(O)[C@@H]1C[C@@H](O)CN1
The data set is classed as biochemical, Streptosporangium roseum. The settings on record: 4HypE reaction (start from t4Hyp as in Figure 1), 50 mM Na-phosphate pH 8.0, 1 mM DTT, 25°C.

Substrate in data set [6]: O=C(O)[C@H]1NCC[C@@H]1O
The data set is classed as biochemical, Agrobacterium fabrum. The settings on record: t3HypD (dehydration) reaction, 50 mM Na-phosphate pH 8.0, 1 mM DTT, 25°C.

Substrate in data set [7]: O=C(O)[C@H]1NCC[C@@H]1O
Conditions: t3HypD (dehydration) reaction, 50 mM Na-phosphate pH 8.0, 1 mM DTT, 25°C.

Substrate in data set [8]: O=C(O)[C@@H]1C[C@@H](O)CN1
The data set is classed as biochemical, Paracoccus denitrificans. Conditions: 4HypE reaction (start from t4Hyp as in Figure 1), 50 mM Na-phosphate pH 8.0, 1 mM DTT, 25°C.

Substrate in data set [9]: O=C(O)[C@H]1NCC[C@@H]1O
The data set is classed as biochemical, Gillisella ampelina. Conditions: t3HypD (dehydration) reaction, 50 mM Na-phosphate pH 8.0, 1 mM DTT, 25°C.

Substrate in data set [10]: O=C(O)[C@@H]1C[C@@H](O)CN1
The data set is classed as biochemical, Shewanella loihica. The settings on record: 4HypE reaction (start from t4Hyp as in Figure 1), 50 mM Na-phosphate pH 8.0, 1 mM DTT, 25°C.

Broadly, the Km is the substrate concentration at which the rate is half of its maximum. In general, kcat refers to the number of substrate molecules converted per active site and unit of time at saturation.

B1: SIAM614_28492 (A0NXQ7) (Roseibium aggregatum IAM 12614) (protein)
chain: MRVIDSHTAGEPTRVVLDGGPDLGSGTLAERAARLEAEHLDFCASVVLEPRGHDAIIGALLVPPSDPACAAGVIYFNNLQNLGMCGHATIGLGVTLAHLGRIRPGRHRFETPVGVVEIDLIDANTVSVVNIESYRLAKDVTVEVEGVGPVTGDVAWGGNWFFLVKNSPIALTGANIRPLTDLTLKIRTALEKAGVTGKDGAWIDHIELFGPAEDPAAQSRNFVLCPGGAYDRSPCGTGCSAKLACLAADGALAPGQDYLQESVIGSTYKISYQPGPGGGVIPTITGQAFVTSDATLIFNPADPYRSGIRL
For the protein B1, in data set [1], the Km was found to be 3.2 ± 0.5 mM and the kcat was found to be 55 ± 3 s⁻¹.

B2: RSP_0854 (Q3IZJ8) (Cereibacter sphaeroides 2.4.1) (protein)
chain: MSIEIIGPEAEAHLSWDGLTTALTQGHKLPRAEVADIFLYRGKDTVLSRAAWIDGLGQLVKTATIFPGNGAAGKPTVNGAVTLYSDRDGTLEALVDFHLVTKWKTAGDSLLAAKRLARRDSREILLVGAGNVARSMIEAYGSHFPDARFTVWNRSADKARAMEGPQVRATEDLEAAVRAADIICTATMSQEPVVKGEWLKPGTHLDLIGAYRPDMREVDDEALRRATVFVDSRKTTIGHIGEIQDPLDRGILTEADIRADYYDLASGLYARRSDEEITLAKNGGGAHLDLMTASYIAAMWRQR
On to B2, for which, in data set [2], the Michaelis-Menten constant (Km) was 0.43 ± 0.09 mM and the kcat was 66 ± 4 s⁻¹.

B3: PFL_1416 (Q4KGT8) (Pseudomonas protegens Pf-5) (protein)
chain: MSEYITLSLDEVCALSYQVLTRHGLSDAHARAIAEVITQGQRDECHSHGVYRLLGCVRSVREGRIDPRAEPSLRHVSPGVLEVDAHYGYSLLGFHTGLPILAEKARSQGIAAMVIKRCFHFSALWPEVEAIADYGLVGMAMNPSHSWVAPAGGRQPVFGTNPLAFAWPRPGGQPFVFDFATSAIARGDIELHARQGKPIPEHWAIDADGQPTTDAKAALQGAMQTFGGHKGSALAAMIELLAGALIGDLTSAESMAFDGGVGATPCHGELVLAFDPRVFLGEGYEQGLERAEGLFAAIARQGARLPSQRRFAARARSLEHGVQIPRGLLEDIRGLL
On to B3, for which, in [2], the Km stood at 1.1 ± 0.2 mM and the kcat worked out at 20 ± 0.8 s⁻¹.

B4: Bamb_3769 (Q0B950) (Burkholderia ambifaria AMMD) (protein)
chain: MKISRSLSTVEVHTGGEAFRIVTSGLPRLPGDTIVQRRAWLKENADEIRRALMFEPRGHADMYGGYLTEPVSPTADFGVIFLHNEGYSDHCGHGVIALSTAAVELGWVQRTVPETRVGIDAPCGFIEAFVQWDGEHAGPVRFVNVPSFIWRRDVSVDTPSFGTVTGDIAYGGAFYFYVDGAPFDLPVREAAVEKLIRFGAEVKAAANAKYPVVHPEIPEINHIYGTIIANAPRHPGSTQANCCVFADREVDRSPTGSGTGGRVAQLYQRGVLAAGDTLVNESIVGTVFKGRVLRETMVGDIPAVIPEVEGSAHICGFANWIVDERDPLTYGFLVR
Take B4: in [3], the Km turned out to be 13 ± 3 mM and the kcat was 43 ± 4 s⁻¹.

B5: Atu0398 (A9CKB4) (Agrobacterium fabrum str. C58) (protein)
chain: MRWKRTLQLLDVHCEGEIGRVVTGGAPKIPGNTVAEQLHWMNTDPQGEALRRFLTLEPRGTPMGSVDLLLPPKHPDAHAAFVILQPDQAHASSGSNSICATTALLESGMVEMQEPETVIILETAAGLVKATATCRDGRCEKVKLTMVPSFVHELDVSIDTPEWGRVTMDISYGGIFYALVDVRQIGLTIEKANAAKLVAAGMTLKDLVNREMTVVHPEIPAISGVAYVMFRDVDADGSIRTCTTMWPGRADRSPCGTGNSANLATLYARGKVKVGDEYKSRSIIGSEFDVGLSAVTEVAGRPAVIPTIAGRGFTFGLHQVGLDPFDPLGDGFAMTDVWGPEAGNI
For the protein B5, in data set [4], the Km turned out to be 4.6 ± 2 mM and the kcat worked out at 0.86 ± 0.1 s⁻¹.

B6: Sros_6004 (D2AV87) (Streptosporangium roseum DSM 43021) (protein)
chain: MRTKRVFHAVDSHTEGMPTRVITGGVGVIPGSTMAERREHFLAEMDHVRTLLMYEPRGHSAMSGAILQPPTRPDADYGVLYIEVSGCLPMCGHGTIGVATVLVETGMVEVVEPVTTIRLDTPAGLVVAEVRVEDGAATAVTITNVPSFSAGLDRTVKVPGIGEVTYDLAYGGNFYAILPIESVGLPFDRAHKQQILDAGLAIMDAINEQDEPVHPLDAGIRGCHHVQFTAPGSDARHSRHAMAIHPGWFDRSPCGTGTSARMAQLHARGELPLDTDFVNESFIGTRFVGRLVEETEVTDLPAVVPTITGRAWVTGTAQYFLDPRDPFPEGFLL
In the case of B6, in [5], the Km was 7.8 ± 1 mM and the catalytic constant (kcat) amounted to 14 ± 0.8 s⁻¹.

B7: Atu4684 (A9CH01) (Agrobacterium fabrum str. C58) (protein)
chain: MRSIKTVHVISAHAEGEVGDVIVGGVKPPPGETIWEQSRFIARDETLRNFVLNEPRGGVFRHVNLLVPPKHPDADAAFIIMEPEDTPPMSGSNSICVSTVLLDGGIVPMQEPETHMLLEAPGGLVKVRAECRNGKAERIFVQNLPSFAAKLDAELEVEGLGKLKVDTAYGGDSFVIVDAEAMGFSLKPEEAHEIARLGVRITNAANKALGFDHPENPDWRHFSFCLFAGKVERTAEGLRAGAAVAIQPGKVDRSPTGTALSARMAVLHARGEMKEGETLTAVSLIGSTFTGRILGTTTVGDRPAILPEISGRGWITGIHQHMLDPSDPWPEGYRLTDTWGAR
As to B7, in [6], the Km amounted to 4.2 ± 0.8 mM and the kcat came out at 27 ± 1 s⁻¹.

B8: Pden_1185 (A1B196) (Paracoccus denitrificans PD1222) (protein)
chain: MARKSSAPQFLSYGDATGRLSWRDAVEALRQGHTLPQAQIRDVFLGPPTGTMMSRSAWIEGLGYGAKTFTVFDGNAARGLPTVQGAMLVFDKDDGRLQAIVDSPLVTEFKTAADSVLGASLLARPDSRHLLIVGAGTVAASLVRAYTAVLPGIERVSVWARRPQQAQDLIEGLDGIEADLAAVSDLPAAVGQADIVSSATMARQPVILGAWVRPGTHVDLIGAFKADMREADDALMARAALFVDSRETTLGHIGELMLPIASGAITAESVLGDLYDLVRPGARRRQSEDEITVFKNGGGAHLDLMIASYIARVMAG
Consider B8, for which, in data set [2], the Km was determined as 3.1 ± 0.7 mM and the kcat amounted to 260 ± 20 s⁻¹.

B9: SIAM614_28502 (A0NXQ9) (Roseibium aggregatum IAM 12614) (protein)
chain: MRSTKTIHVISCHAEGEVGDVIVGGVAPPPGETLWEQRSFIARDQTLRNFVLNEPRGGVFRHVNLLVPPRHPEADAAFIIMEPEDTPPMSGSNSICVSTVLLDGGIVPMIEPITEMVLEAPGGLVRVKAECRNGKAERIFVQNVTSFADKLSVPLDVEGIGTLTVDTAYGGDSFVVVDAEALGFAIVEDEAKDIARLGVRITNAANEQLGFSHPENPDWNHISFCAFCGPLSQTPTGLTGRSAVAIQPGKVDRSPTGTAVSARMALMAARGQMTIGDTFEAVSIIGSSFTGRIVSQQMAGDRPGIVPEISGRGWITGIHQHMLDPSDPWPGGYKLSDTWGA
With B9, in data set [7], the Km came out at 7.8 ± 1 mM and the kcat came out at 15 ± 0.9 s⁻¹.

B10: SM_b20270 (Q92WR9) (Sinorhizobium meliloti 1021) (protein)
chain: MRSTKTIHVISAHAEGEVGDVIVGGVAPPPGDTIWEQSRWIAREQTLRNFVLNEPRGGVFRHVNLLVPPKHPDADAAFIIMEPEDTPPMSGSNSICVSTVLLDSGILPMKEPVTEITLEAPGGLVRVRAECRDGKAERIFVENLPSFAERLDAKLEVEGLGTLTVDTAYGGDSFVIVDAAAMGFALKPDEAHDIARLGVRITNAANAKLGFHHPENPDWRHFSFCLFAGPVERTAEGLRAGAAVAIQPGKVDRSPTGTALSARMAVLHARGQMGLSDRLTAVSLIGSTFSGRILGTTEVGGRPAVLPEISGRAWITGTHQHMLDPSDPWPEGYRLTDTWGAR
As to B10, in [7], the Km was found to be 3.8 ± 0.4 mM and the kcat is 7.9 ± 0.2 s⁻¹.

B11: Pden_4859 (A1BBM5) (Paracoccus denitrificans PD1222) (protein)
chain: MTQYIFPCIDGHTCGNPVRLVAGGAPRLEGATMLEKRAHFLREFDWIRTGLMFEPRGHDMMSGAILYPPTRGDCDVAVLYIETSGCLPMCGHGTIGTITMGIENGLIVPRTPGRLSIETPAGKVDIEYRQEGRHVEEVRLTNVPGFLYAEGLTAEVEGLGEIVVDVAYGGNFYAIVEPQKNFRDMADHTAGELIGWSLTLRAALNQKYEFTHPEHPQINGLSHIQWTGAPTVPGAHARNAVFYGDKAIDRSPCGTGTSARMAQLAARGRLGVGDEFWHESIIGSIFKGRIEAAATVAGRDAIIPSIAGWARQTGLNTIFIDAERDPFAHGFVVK
Regarding B11, in [8], the Km amounted to 25 ± 5 mM and the kcat was determined as 16 ± 2 s⁻¹.

B12: Avi_7022 (B9K4G4) (Allorhizobium ampelinum S4) (protein)
chain: MRTNKVIHVIGVHAEGEVGDVIVGGVSPPPGDTLWEQSRFIASDETLRNFVLNEPRGGVFRHVNLLVPPKDPRAQMGFIIMEPADTPPMSGSNSICVSTAILDSGIISMQEPLTHMVLEAPGGVIEVTAECANGKAERINVLNVASFVTRLAAALEVEGLGTLTVDTAYGGDSFVIVDAIGLGFSLKPDEARELAELGMKITAAANEQLGFVHPCNADWNHISFCQMTTPITRENGILTGKSAVAIRPGKIDRSPTGTGCSARLAVMHARGEIGIGETYIGRSIIDSEFKCHIDSLTEIGGLSAIRPVISGRAWITGVSQLMLDPTDPWPSGYQLSDTWPAI
On to B12, for which, in [9], the Km came out at 15 ± 3 mM and the kcat stood at 4.3 ± 0.4 s⁻¹.

B13: Shew_2363 (A3QFI1) (Shewanella loihica PV-4) (protein)
chain: MLKGTFFCVDAHTCGNPVRLVTSGHPDLKGRTMSEKRQDFLAQYDWIRKALMFEPRGHDMMSGAFLYPPCSDNADAAILFIETSGCLPMCGHGTIGTITAALESGLLTPKMPGQLTIDVPAGQIKVQYQQTGAKVDWVKIFNVPAYLAHKDVVLDIPGLGPLKIDVSYGGNYYAIVDPQANFPGLRHWSAGDILRWSPIVREVAHRELNCVHPDDPTVNGVSHVLWTGDTISEGSNGANAVFYGDKAIDRSPCGTGTSARLAQLYSRGELKVGDEYTHESIIGSQFVGRIEAATKVGAFDAIMPSIKGWARITGHNAITVDDNDPYAFGFQVV
As to B13, in data set [10], the Km is 12 ± 3 mM and the kcat came to 50 ± 6 s⁻¹.

The values above are taken from PMC4113996, “Prediction and characterization of enzymatic activities guided by sequence similarity and genome neighborhood networks” (eLife, 2014).
